{
  "source": "patent US20150056133A1",
  "about": "(Boehringer Ingelheim, published 2015)",
  "binders": {"B1": {"name": "CX3CR1BII317 (VHH)", "chain": "EVQLVESGGGLVQAGGSLRLSCVASGRTFSSYAMGWFRQAPGKERAFVAGISGSASRKYYADSVKGRFTVSRDNARNTVYLQMNSLKPEDTAVYYCAASNSYPKVQFDYYGQGTLVTVSSGGGGSGGGGSGGGGSGGGGSGGGGSGGGGSGGGGSEVQLVESGGGLVQAGGSLRLSCVASGRTFSSYAMGWFRQAPGKERAFVAGISGSASRKYYADSVKGRFTVSRDNARNTVYLQMNSLKPEDTAVYYCAASNSYPKVQFDYYGQGTLVTVSSAAAEQKLISEEDLNGAAHHHHHH", "notes": "Bivalent VHH (single polypeptide chain)"}, "B2": {"name": "CX3CR1BII315 (VHH)", "VHH": "EVQLVESGGGLVQAGGSLRLSCVASGRTFSSYAMGWFRQAPGKERAFVAGISGSASRKYYADSVKGRFTVSRDNARNTVYLQMNSLKPEDTAVYYCAASNSYPKVQFDYYGQGTQVTVSS", "notes": "Expressed in E. coli TG1 as c-myc, His6-tagged protein"}, "B3": {"name": "CX3CR1BII66B02 (VHH)", "VHH": "EVQLVESGGGSVQAGESLRLSCAASGSIFSSNAMAWYRQAPGKRRDLVAAINSVGVTKYADSVKGRFTISRDNAKNTVYLQMNSLKPEDTAVYYCTSDPRRGWDTRYWGQGTQVTVSS", "notes": "as for B2"}, "B4": {"name": "CX3CR1BII316 (VHH)", "VHH": "EVQLVESGGGSVQAGESLRLSCAASGSIFSSNAMAWYRQAPPGKQRDLVALINSVGITKYADSVKGRFTISSDNAKNTVYLEMNSLKPEDTAVYYCTSDGRRGWDTRYWGQGTQVTVSS", "notes": "as for B2"}, "B5": {"name": "CX3CR1BII318 (VHH)", "chain": "EVQLVESGGGSVQAGESLRLSCAASGSIFSSNAMAWYRQAPGKRRDLVAAINSVGVTKYADSVKGRFTISRDNAKNTVYLQMNSLKPEDTAVYYCTSDPRRGWDTRYWGQGTQVTVSSGGGGSGGGGSGGGGSGGGGSGGGGSGGGGSGGGGSEVQLVESGGGSVQAGESLRLSCAASGSIFSSNAMAWYRQAPGKRRDLVAAINSVGVTKYADSVKGRFTISRDNAKNTVYLQMNSLKPEDTAVYYCTSDPRRGWDTRYWGQGTQVTVSSAAAEQKLISEEDLNGAAHHHHHH", "notes": "as for B1"}, "B6": {"name": "CX3CR1BII18E06 (VHH)", "VHH": "KVQLVESGGGLVQPGGSLRLSCATSGTIFSNNAMGWYRQAPGKKRDLVASISSSGSTNYADSVKGRFTVSRDNDKNTGYLQMNSLKPEDTGVYYCTLDARRGWNTAYWGQGAQVTVSS", "notes": "as for B2"}},
  "data": [
    {"target": "T1, human CX3CR1 (human, UniProt P49238 1-355)", "T1 construct": "Presented on BA/F3-hCX3CR1, CHO-hCX3CR1 or HEK 293-hCX3CR1 cells, depending on the assay; also called hCX3CR1", "T1 sequence (looked up)": "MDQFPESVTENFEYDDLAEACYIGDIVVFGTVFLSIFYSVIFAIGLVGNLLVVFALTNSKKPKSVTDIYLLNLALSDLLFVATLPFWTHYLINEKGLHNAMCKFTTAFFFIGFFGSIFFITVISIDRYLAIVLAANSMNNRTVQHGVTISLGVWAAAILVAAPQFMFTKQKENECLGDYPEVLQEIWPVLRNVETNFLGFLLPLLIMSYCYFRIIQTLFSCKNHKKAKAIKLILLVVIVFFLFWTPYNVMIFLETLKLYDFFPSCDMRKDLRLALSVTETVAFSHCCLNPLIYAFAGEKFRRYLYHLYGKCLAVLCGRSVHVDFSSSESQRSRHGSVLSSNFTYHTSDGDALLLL", "assay": "competition FACS against labeled fractalkine, CHO-hCX3CR1 cells", "protocol": "Periplasmic extracts were screened in a human CX3CR1/human fractalkine FACS competition assay to assess the ability of the expressed VHHs to block the binding of the unique CX3CR1 ligand to the receptor. Human CX3CR1 was presented on CHO cells. As a detection reagent fractalkine (R&D Systems, Minneapolis, Minn., USA) labeled with Alexa Fluor 647 (A647-Fractalkine) at a degree of labeling of 1 was used. In brief, 50 μl of periplasmic extract was added to 6 nM labeled fractalkine (50 μl) and 2E5 CHO-hCX3CR1 cells. After one hour incubation at 4° C., cells were washed three times before analysis on a FACS Array (Becton Dickinson). First a gate was set on the intact cells as determined from the scatter profile. Next, dead cells were gated out by their fluorescence profile from the PI stain (Sigma, St Louis, US). The fluorescence profile from the Alexa Fluor 647 label was determined for each sample and used for the calculation of blocking capacity. As controls, conditions were taken along where there was no VHH present in the periplasmic extract or a known irrelevant VHH and samples were included with excess cold fractalkine. For each sample the percentage block was determined using the control samples to determine the assay window. […]", "units": {"IC50": "nM"}, "values": [
      {"binder": "B1", "IC50": 3.4}
    ]},
    {"target": "T2, human CCR5 (human, UniProt P51681 1-352)", "T2 construct": "whole, on cells", "T2 sequence (P51681 whole entry)": "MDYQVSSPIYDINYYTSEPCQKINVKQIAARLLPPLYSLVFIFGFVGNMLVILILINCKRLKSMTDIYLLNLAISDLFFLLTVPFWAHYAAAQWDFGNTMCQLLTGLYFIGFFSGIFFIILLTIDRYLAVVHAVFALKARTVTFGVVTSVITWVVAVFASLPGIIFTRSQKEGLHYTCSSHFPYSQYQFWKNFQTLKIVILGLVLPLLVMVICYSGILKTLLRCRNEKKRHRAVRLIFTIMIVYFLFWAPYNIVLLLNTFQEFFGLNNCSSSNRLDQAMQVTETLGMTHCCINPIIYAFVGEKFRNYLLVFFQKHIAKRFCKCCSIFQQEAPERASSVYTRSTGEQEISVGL", "assay": "FACS binding on CHO cells expressing human CCR5, anti-cmyc detection", "protocol": "(§1) Specificity for the hCX3CR1 receptor was evaluated by performing a FACS binding experiment on CHO-K1 parental cells or CHO cells expressing human CCR2, human CCR5 or mouse CX3CR1. The VHHs were incubated with the respective cell lines for 30 minutes at 4° C. followed by three wash steps and subsequently incubated with the detection reagents. As detection, a mouse anti-cmyc antibody (Serotec, MCA2200) followed by a goat anti-mouse antibody coupled to PE (Jackson 115-116-071) was used, each incubation was for 30 minutes at 4° C. and was followed by three wash steps. For each cell line a quality control with receptor-specific antibody was included. In addition, the highest concentration of each VHH was also incubated with CHO cells expressing hCX3CR1 as a positive control. No binding to mouse CX3CR1, human CCR2 or human CCR5 could be observed.", "values": [
      {"binder": "B2", "binding result": "no binding"},
      {"binder": "B1", "binding result": "no binding"},
      {"binder": "B3", "binding result": "no binding"},
      {"binder": "B4", "binding result": "no binding"},
      {"binder": "B5", "binding result": "no binding"},
      {"binder": "B6", "binding result": "no binding"}
    ]},
    {"target": "T3, human CCR2 (human, UniProt P41597 1-374)", "T3 construct": "whole, on cells", "T3 sequence (P41597 whole entry)": "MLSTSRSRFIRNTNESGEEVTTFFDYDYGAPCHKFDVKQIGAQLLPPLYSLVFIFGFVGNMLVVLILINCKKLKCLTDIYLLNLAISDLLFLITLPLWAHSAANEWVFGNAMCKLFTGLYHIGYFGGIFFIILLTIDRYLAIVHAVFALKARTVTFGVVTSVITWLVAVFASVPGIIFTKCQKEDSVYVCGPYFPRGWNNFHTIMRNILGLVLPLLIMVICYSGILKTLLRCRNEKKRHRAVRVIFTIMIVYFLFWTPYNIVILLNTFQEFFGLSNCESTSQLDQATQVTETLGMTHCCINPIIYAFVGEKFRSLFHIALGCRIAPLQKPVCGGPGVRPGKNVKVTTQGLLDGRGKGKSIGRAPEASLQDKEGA", "assay": "FACS binding on CHO cells expressing human CCR2, anti-cmyc detection", "protocol": "as §1", "values": [
      {"binder": "B2", "binding result": "no binding"},
      {"binder": "B1", "binding result": "no binding"},
      {"binder": "B3", "binding result": "no binding"},
      {"binder": "B4", "binding result": "no binding"},
      {"binder": "B5", "binding result": "no binding"},
      {"binder": "B6", "binding result": "no binding"}
    ]},
    {"target": "T1, human CX3CR1", "assay": "competition FACS against labeled fractalkine, HEK 293-hCX3CR1 cells", "units": {"% Block": "%", "IC50": "nM"}, "values": [
      {"binder": "B3", "% Block": 102, "IC50": 2.5},
      {"binder": "B4", "% Block": 94, "IC50": 5.3},
      {"binder": "B5", "% Block": 102, "IC50": 0.3}
    ]},
    {"target": "T1, human CX3CR1", "assay": "competition FACS against labeled fractalkine, BA/F3-hCX3CR1 cells", "units": {"IC50": "nM"}, "values": [
      {"binder": "B2", "IC50": 8.1},
      {"binder": "B6", "IC50": 2.8}
    ]},
    {"target": "T4, mouse CX3CR1 (mouse, UniProt Q9Z0D9 1-354)", "T4 construct": "whole, on cells", "T4 sequence (looked up)": "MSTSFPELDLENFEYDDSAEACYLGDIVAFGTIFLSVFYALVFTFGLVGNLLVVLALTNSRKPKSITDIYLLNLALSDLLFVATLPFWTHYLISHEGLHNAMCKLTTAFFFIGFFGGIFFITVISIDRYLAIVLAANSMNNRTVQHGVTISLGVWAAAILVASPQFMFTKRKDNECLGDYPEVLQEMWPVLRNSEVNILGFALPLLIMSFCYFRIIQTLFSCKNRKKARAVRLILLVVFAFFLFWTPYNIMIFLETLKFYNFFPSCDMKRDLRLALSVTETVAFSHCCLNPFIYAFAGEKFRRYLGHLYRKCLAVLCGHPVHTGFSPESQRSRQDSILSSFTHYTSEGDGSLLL", "assay": "FACS binding on CHO cells expressing mouse CX3CR1, anti-cmyc detection", "protocol": "as §1", "values": [
      {"binder": "B2", "binding result": "no binding"},
      {"binder": "B1", "binding result": "no binding"},
      {"binder": "B3", "binding result": "no binding"},
      {"binder": "B4", "binding result": "no binding"},
      {"binder": "B5", "binding result": "no binding"},
      {"binder": "B6", "binding result": "no binding"}
    ]}
  ]
}
